B1: Azoarcus group I ribozyme (parent)
chain: GUGCCUUGCGCCGGGAAACCACGCAAGGGAUGGUGUCAAAUUCGGCGAAACCUAAGCGCCCGCCCGGGCGUAUGGCAACGCCGAGCCAAGCUUCGGCGCCUGCGCCGAUGAAGGUGUAGAGACUAGACGGCACCCACCUAAGGCAAACGCUAUGGUGAAGGCAUAGUCCAGGGAGUGGCGAAAGUCACACAAACCGG

Variants of: B1
Experiment: reverse-splicing fitness (ratio to wild type); higher = more active; in vitro selection; Mg2+ level not given
Procedure, shortened: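 An in vitro group I ribozyme library with randomized positions was T7-transcribed and gel-purified. In triplicate, 10 pmol RNA in EPPS pH 7.5 was reacted with 50 pmoles of a 30-nt RNA substrate for 1 h at 37 °C across several added MgCl2 levels (1–48 mM), then stopped with EDTA. Products were reverse transcribed from a substrate-complementary primer, PCR-amplified and sequenced (HiSeq 4000). Fitness is a variant's read proportion after selection over that before, normalised to wild type.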

Row | Variant | reverse-splicing fitness
1 | C82G A111C A120U C150A C169A U176C | 0.00453
2 | C82G A111C A120U C150A C169A U176G | 0.00289
3 | C82G A111C A120U C169A U176C | 0.00457
4 | C82G A111C A120U C169A U176A | 0.00425
5 | C82G A111C A120U C169A U176G | 0.00246
6 | C82G A111C A120U A145U C150A C169G | 0.00295
7 | C82G A111C A120U A145U C150A C169U | 0.00311
8 | C82G A111C A120U A145U C150A C169A | 0.00247
9 | C82G A111C A120U A145C C169G U176G | 0.00197
10 | C82G A111C A120U A145C C169G U176C | 0.00339
11 | C82G A111C A120U A145C C169G U176A | 0.00322
12 | C82G A111C A145C C150G U176G | 0.00447
13 | C82G A111C A145C C150G U176C | 0.0203
14 | C82G A111C A145C C150G U176A | 0.0132
15 | C82G A111C A120G C169U U176G | 0.00516
16 | C82G A111C A120G C169U U176C | 0.0141
17 | C82G A111C A120G C169U U176A | 0.0181
18 | C82G A111C A145C C150A C169A U176A | 0.0136
19 | C82G A111C A145C C150A C169A U176C | 0.00947
20 | C82G A111C A145C C150A C169A U176G | 0.00782
21 | C82G A111C A145C | 0.29

Row | Variant | reverse-splicing fitness
22 | C82G A111C A145C C150U C169G | 0.00777
23 | C82G A111C A145C C150U C169A | 0.00808
24 | C82G A111C A145C C150U C169U | 0.0113
25 | C82G A111C A120U A145U C150U U176C | 0.013
26 | C82G A111C A120U A145U C150U U176G | 0.00386
27 | C82G A111C A120U A145U C150U U176A | 0.00941
28 | C82G A111C A120U A145G C169U U176C | 0.00468
29 | C82G A111C A120U A145G C169U U176G | 0.0022
30 | C82G A111C A120U A145G C169U U176A | 0.00525
31 | C82G A111C A120U A145C C150G C169U | 0.00395
32 | C82G A111C A120U A145C C150G C169A | 0.00373
33 | C82G A111C A120U A145C C150G C169G | 0.0033
34 | C82G A111C A120U | 0.0509
35 | C82G A111C A120U A145G C150G C169G U176A | 0.00983
36 | C82G A111C A120U A145G C150G C169G U176C | 0.00829
37 | C82G A111C A120U A145G C150G C169G U176G | 0.00427
38 | C82G A111C A120U C150A C169U U176A | 0.00691
39 | C82G A111C A120U C150A C169U U176G | 0.00298
40 | C82G A111C A120U C150A C169U U176C | 0.00469
41 | C82G A111C A145C C169G U176A | 0.0274
42 | C82G A111C A145C C169G U176C | 0.0197

Row | Variant | reverse-splicing fitness
43 | C82G A111C A145C C169G U176G | 0.00663
44 | C82G A111C A145C C150A | 0.016
45 | C82G A111C A145C C150U | 0.0631
46 | C82G A111C A145C C150G | 0.0271
47 | C82G A111C A120U C150G C169A | 0.00763
48 | C82G A111C A120U C150G C169G | 0.00669
49 | C82G A111C A120U C150G C169U | 0.00609
50 | C82G A111C A120U C150G C169G U176A | 0.0049
51 | C82G A111C A120U C150G C169G U176G | 0.00302
52 | C82G A111C A120U C150G C169G U176C | 0.00379
53 | C82G A111C A145C C150U C169A U176G | 0.00839
54 | C82G A111C A145C C150U C169A U176A | 0.0156
55 | C82G A111C A145C C150U C169A U176C | 0.0132
56 | C82G A111C A145C U176C | 0.137
57 | C82G A111C A145C U176A | 0.126
58 | C82G A111C A120U A145C C150G U176C | 0.00457
59 | C82G A111C A120U A145C C150G U176G | 0.00221
60 | C82G A111C A120U A145C C150G U176A | 0.00364
61 | C82G A111C A120U C150G C169U U176A | 0.00494
62 | C82G A111C A120U C150G C169U U176C | 0.00676
63 | C82G A111C A120U C150G C169U U176G | 0.00294

Row | Variant | reverse-splicing fitness
64 | C82G A111C A120U A145C C150U C169A | 0.00304
65 | C82G A111C A120U A145C C150U C169G | 0.00299
66 | C82G A111C A120U A145C C150U C169U | 0.003
67 | C82G A111C A120U U176C | 0.0175
68 | C82G A111C A120U U176G | 0.00466
69 | C82G A111C A120U U176A | 0.0113
70 | C82G A111C A120U C169U U176G | 0.00247
71 | C82G A111C A120U C169U U176A | 0.00632
72 | C82G A111C A120U C169U U176C | 0.00475
73 | C82G A111C A120U C169G U176G | 0.00213
74 | C82G A111C A120U C169G U176A | 0.00344
75 | C82G A111C A120U C169G U176C | 0.00367
76 | C82G A111C A120G C169A U176G | 0.00442
77 | C82G A111C A120G C169A U176C | 0.0206
78 | C82G A111C A120G C169A U176A | 0.016
79 | C82G A111C A145C C150A U176A | 0.0144
80 | C82G A111C A145C C150A U176G | 0.00879
81 | C82G A111C A145C C150A U176C | 0.0188
82 | C82G A111C A120U A145G C150A C169G | 0.0054
83 | C82G A111C A120U A145G C150A C169U | 0.00514
84 | C82G A111C A120U A145G C150A C169A | 0.00787
